Test results: article PMC13231165

What was measured:
[1] = molecular target: PCV2 Rep WT (catalytically inactive) (Porcine circovirus 2 (PCV2)) (UniProt Q8BB16); experiment: fluorescence polarization; settings: 50 mM NaCl, 50 mM HEPES pH 8.0, 0.05% Tween-20, 1 mM DTT, 5 uM MnCl2 (SI legend: 50 uM Mn2+) or EDTA; 10 nM FAM substrate, protein from 1 uM in 1:2 dilutions …
[2] = molecular target: PCV2 Rep WT (catalytically inactive) (Porcine circovirus 2 (PCV2)) (UniProt Q8BB16); experiment: fluorescence polarization; settings: 50 mM NaCl, 50 mM HEPES pH 8.0, 0.05% Tween-20, 1 mM DTT, 5 uM MnCl2 (SI legend: 50 uM Mn2+) or EDTA; 10 nM FAM substrate, protein from 1 uM in 1:2 dilutions …; remark: listed apart in the source

Chain of UniProt Q8BB16 (Q8BB16 whole entry): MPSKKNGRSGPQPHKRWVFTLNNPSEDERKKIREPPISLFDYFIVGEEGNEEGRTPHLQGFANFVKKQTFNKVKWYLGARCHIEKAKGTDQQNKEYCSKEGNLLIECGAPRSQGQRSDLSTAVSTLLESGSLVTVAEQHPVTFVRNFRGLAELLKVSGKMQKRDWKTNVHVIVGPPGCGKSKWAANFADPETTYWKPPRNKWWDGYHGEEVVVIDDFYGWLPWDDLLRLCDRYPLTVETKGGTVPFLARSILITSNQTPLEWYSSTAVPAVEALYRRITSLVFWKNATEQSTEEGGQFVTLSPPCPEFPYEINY

Sequence	Kd [1] [nM]	Kd [2] [nM]
CGTAAATATTACCGTC [HUHDNA_FAM]	30	6
CGUAAAAUAUUACCGUC [HUHRNA_FAM]	100	90
